Measured values published in article PMC8377056.
“And” between values parts separate entries of the source, which are not always exact repeats. Equal entries are not always repeated.

Columns and labels:
[1] = target: His-tagged recombinant mouse LDLR (mouse) (UniProt P35951); assay: SPR; His-tagged LDLR immobilised on a NiHC1000m sensor chip; VH4127 (10-160 nM) or Fc(A680)-VH4127 (1-16 nM) injected, single-cycle kinetics; 1:1 Langmuir model; Biacore T200
[2] = target: His-tagged recombinant human LDLR (human) (UniProt P01130); assay: SPR; His-tagged mouse or human LDLR immobilised on a NiHC1000m sensor chip; VH4127 (10-160 nM) or Fc(A680)-VH4127 (1-16 nM) injected, single-cycle kinetics; double-subtracted sensorgrams fitted globally with the 1:1 Langmuir model (Biacore T200)
[3] = target: His-tagged recombinant human LDLR (human) (UniProt P01130); assay: SPR; His-tagged LDLR immobilised on a NiHC1000m sensor chip; VH4127 (10-160 nM) injected, single-cycle kinetic method; double-subtracted sensorgrams fitted globally with the 1:1 Langmuir model (Biacore T200)
[4] = target: His-tagged recombinant mouse LDLR (mouse) (UniProt P35951); assay: as above

Sequence of His-tagged recombinant mouse LDLR (mouse) (P35951 22-790): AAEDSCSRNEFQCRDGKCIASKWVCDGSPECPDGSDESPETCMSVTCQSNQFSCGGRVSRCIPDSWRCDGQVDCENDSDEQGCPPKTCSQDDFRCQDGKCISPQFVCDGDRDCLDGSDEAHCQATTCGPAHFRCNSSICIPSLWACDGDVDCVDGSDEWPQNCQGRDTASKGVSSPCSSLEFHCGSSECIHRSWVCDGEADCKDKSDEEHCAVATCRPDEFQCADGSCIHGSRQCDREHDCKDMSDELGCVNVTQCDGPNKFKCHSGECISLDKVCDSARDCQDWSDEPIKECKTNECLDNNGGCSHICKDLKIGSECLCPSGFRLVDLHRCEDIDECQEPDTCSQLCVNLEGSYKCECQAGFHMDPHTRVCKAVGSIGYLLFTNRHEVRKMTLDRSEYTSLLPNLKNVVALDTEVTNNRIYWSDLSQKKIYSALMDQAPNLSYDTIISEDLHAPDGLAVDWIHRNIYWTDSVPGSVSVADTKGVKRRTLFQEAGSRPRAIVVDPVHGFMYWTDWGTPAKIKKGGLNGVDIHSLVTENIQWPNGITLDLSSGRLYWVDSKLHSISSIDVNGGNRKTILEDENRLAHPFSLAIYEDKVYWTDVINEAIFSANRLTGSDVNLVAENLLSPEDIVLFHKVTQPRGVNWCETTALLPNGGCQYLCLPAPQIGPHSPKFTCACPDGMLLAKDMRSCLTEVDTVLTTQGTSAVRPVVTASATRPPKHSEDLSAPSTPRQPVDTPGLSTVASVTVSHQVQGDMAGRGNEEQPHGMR
Sequence of His-tagged recombinant human LDLR (human) (P01130 22-788): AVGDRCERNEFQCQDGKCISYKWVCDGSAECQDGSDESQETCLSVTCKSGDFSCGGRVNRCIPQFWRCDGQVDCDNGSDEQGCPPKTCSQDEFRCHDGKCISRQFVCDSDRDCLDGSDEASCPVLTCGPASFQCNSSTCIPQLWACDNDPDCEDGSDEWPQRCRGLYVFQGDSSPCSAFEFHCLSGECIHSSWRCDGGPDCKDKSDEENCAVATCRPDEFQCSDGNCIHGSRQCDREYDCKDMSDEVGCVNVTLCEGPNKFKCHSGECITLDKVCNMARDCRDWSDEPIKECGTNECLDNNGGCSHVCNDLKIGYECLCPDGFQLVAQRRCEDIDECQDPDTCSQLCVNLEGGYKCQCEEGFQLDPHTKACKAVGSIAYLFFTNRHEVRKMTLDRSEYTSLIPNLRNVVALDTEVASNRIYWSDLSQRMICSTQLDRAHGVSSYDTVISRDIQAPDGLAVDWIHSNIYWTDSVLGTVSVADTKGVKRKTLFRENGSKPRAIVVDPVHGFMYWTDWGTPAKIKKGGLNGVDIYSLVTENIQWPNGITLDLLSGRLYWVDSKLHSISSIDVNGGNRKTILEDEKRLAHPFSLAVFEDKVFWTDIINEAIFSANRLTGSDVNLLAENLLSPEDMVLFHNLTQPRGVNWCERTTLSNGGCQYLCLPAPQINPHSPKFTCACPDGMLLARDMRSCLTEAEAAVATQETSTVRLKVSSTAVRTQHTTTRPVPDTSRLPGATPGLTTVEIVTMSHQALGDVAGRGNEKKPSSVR

Substance: Fc(A680)-VH4127 conjugate (Fc fusion)
- Kd [1]: 0.0918 nM

Substance: VH4127 peptide
- Kd [2]: 21.5 nM and 20 nM and 23.2 nM
- koff [3]: 0.0894 s⁻¹
- kon [3]: 4.06e+06 M⁻¹ s⁻¹
- koff [4]: 0.0821 s⁻¹
- kon [4]: 1.66e+06 M⁻¹ s⁻¹
